Results: the DeepSol protein solubility set

Experiment: soluble on expression in E. coli; label from the status in PepcDB or PDB records

Soluble on expression in E. coli, not soluble:
MGSDKIHHHHHHMLAVEMRRIYKVYPDGVVALKGVDFTVEEGEIHGLLGENGAGKSTLMRILYGEIKPTKGEVKVFGDKVEFNGPWDAIRKGIAMVYQHFTLIPTFTVLENLYLSMLTINPNITINEVRKLAKEKMKDIGFSVPLDDVVEDLPIGIQQRVEIIKALMANAKILILDEPTSVLTPLEVEELFKTLRKLKENGITVIFITHKLKEVKEITDRVTVLRRGEVVGVAKTKEVSERDLAKMMVQREIVMEIKKSPASPGNTVLRVEDLWVKDDRGLDAVKGVSFELKEGEILGIAGVQGNGQKELAEALAGIRRIEKGRIELLGRDVTELSADKRYKAGLAYVPDSRKVGLVLDMSVVENVILTNLPSVMRGRRISWEKANKIGKEIVERFDVLVSSLSTPIKHLSGGNQQKVMVGREIIREPKVVIVSEPTQGLDIGATEFIRKTLVSLRDQGKGILLISTDLDEILQLSDRIAVMYEGKIMAIGKVEEFTLEKLGLLMGGVNA
MGSDKIHHHHHHMLEELSENVWIAEGTCVSFHGFHGFHGFHGFHGFHGFQYPTRSVVVRLKSGAMWVWSPVKFDQDLADEIESLGTITHLVSPNKIHHLFLADWSSHVPTAKIWGPRSTVNKRRDLVFQPALDHLPPRDWAEDFEQFHVKGSLAMDEILFLHKQSNTLILADFSEHFSDQFLQRHWQPWQRRIGQFWGITEGRGFAPLDWRLSFLNRSHLRTLKQQLLDRQVDHVVMAHGEIARTDGHRFLQRSLAWI
MGSDKIHHHHHHMLEREGIEISLRTIQRDLNQIAQRFPIESNKAVPQGWRWQSDAPIQSLPHMTSSQAVTFMMVEEHLKHLLPPSLLDEMGPWFDLAKRSLSTQNNVRQWINRVRIVPASQPLIPPVVDRAAQQAIYEGLLQDKQIECVYRARVNQGEDKTYILNPLALVQKGAVIYLICTRHDKTEVQTFALHRFKSAKVLESRALHPVNFDIDHYIDSGALGFRVDYNQPTESIQLTLTMTEQTAKTFYESQLSKDQTITPIEENIVEVTATVPFTSQLVWWLRSFGKKLLHIEPVQVHNAVREIEPDSK
MGSDKIHHHHHHMLEVKKLTVCYNDFLALNEISLKIQEGALTGIFGPNGAGKSTLLKAMLNIIPHQGEVSINNEDINKKLVKIAYVEQKADIDFTFPIKVKECVSMGTYAGMKVFQRIKNAEWQKVSKALEKVDMGKYSNHQIGELSGGQFQRVLLARCLAQNADFIFLDEPFVGIDLVSERIIMDTLKELKHQGKTVLIVHHDLSKVKKYFDNIILLNRNLIAHGSVESVFNEENLKKAYGDTIFIGEGE
MGSDKIHHHHHHMLFLKELESNLTVSKLMELCFEHPSYKDYCSVISTKKGEVLESLSPAGTKVYFVLSGIYGMIVEEDAEMEEESYKESIVRFLQKGDSFGLYHLFYDEWSPHVSMQSLGHGEVMEVDSNFLFSIFDKKDENNFFMIKVMAEELREAHTFAKLSFLKKEERIRKAILKCAQTLGTFSDNGILLPREITQEVLARYTNTSREYVAHTVMHLIKEDIIRNRPKPLLVMDKTRL
MGSDKIHHHHHHMLFNTRPKEDRKDLYDREKEIEMIKDSIARGEWIAVLGMRRIGKTSVVNVAVKEIGAIKVSINLMRIHDSRKKQYPKHVLISLLIEEINEAIKNYTILGKVAKLLSNILGVEEIQTNKVRAKLTKIRGTDITYIIREMDSIARDNKKQLVIILDEAQELAKVNGLDFPSIFHDVYDNCKNTVIIFTGSMVKLIEKTLKNIEYTEPFFGRYIRKITLGRFLPEQSREFLEKGFEEEGIKVDESVIDEAVKRLDGIPGWLTLFGSEYTFSAKMGTKPRIDEIIEKAINEVRNEARNFIFSTQSPLRYSAVILALDRLGGKGELHEIVKVSSTILNENIPEPRVYEILNRLVEFDFIERREDNEYYLHQDEPNRKGLILAAKDSPASYSI
MGSDKIHHHHHHMLINRNIVALFALPFMASATASELSIGAGAAYNESPYRGYNENTKAIPLISYEGDTFYVRQTTLGFILSQSEKNELSLTASWMPLEFDPTDNDDYAMQQLDKRDSTAMAGVAWYHHERWGTVKASAAADVLDNSNGWVGELSVFHKMQIGRLSLTPALGVLYYDENFSDYYYGISESESRRSGLASYSAQDAWVPYVSLTAKYPIGEHVVLMASAGYSELPEEITDSPMIDRNESFTFVTGVSWRF
MGSDKIHHHHHHMLKICVIGSSGHFRYALEGLDEECSITGIAPGVPEEDLSKLEKAISEMNIKPKKYNNWWEMLEKEKPDILVINTVFSLNGKILLEALERKIHAFVEKPIATTFEDLEKIRSVYQKVRNEVFFTAMFGIRYRPHFLTAKKLVSEGAVGEIRLVNTQKSYKLGQRPDFYKKRETYGGTIPWVGIHAIDWIHWITGKKFLSVYATHSRLHNSGHGELETTALCHFTLENEVFASLSIDYLRPQGAPTHDDDRMRIVGTRGIVEVINERVFLTDEKGHREVPLVEKGQIFEDFLREIRGQGKCMVTPEDSILTTEIALKARLSADTGQIVLI
MGSDKIHHHHHHMLKIGPIEMKNQVVLAPMAGVCNPAFRLIAKEFGAGLVCAEMVSDKAILHKNEKSLSMLYVDEREKPLSLQIFGGEKETLVEAAKFVDKNTNADIIDINMGCPVPKITKCDAGARWLLDPNKIYDMVSAVVDEVDKPVTVKMRIGWDEEHIYAVENAQAVERAGGAAVAVHGRTRVQMYEGTADWNIIREVKQAVGIPVIGNGDVKTPQDAKRMLDEIGVDGVMIGRAALGNPWMLYRTIHYLETGELLPDPTPREKMDVCMIHLDRLIKLKGENVAVREMRKHAAWYLKGLRGNGKIRDQINQFETREDVSSTLYAYIEELEAKMAEKSASVV
MGSDKIHHHHHHMLLALSTWSEIEERLKSSTSVVVPIGSNEQHGPTGLLGTDWLCPEIIAHEASKRASDKVLVAPTFNIGMAQHHLAFPGTIFLRPSTFIAAIGDWVRSLGAHGFTRIYFLNGHGGNVASIEAAFSEIYADYSFRQQRAPFALKLKNWWDLAGVNALANRQFPTGHGSHATPSEIAVTQWAYPETIKTAAYSPPIAPTGPIREALDFRARYADGRMGSDPAQATPEKGGELVSMAANALIEDLAAFAAERAPA
MGSDKIHHHHHHMLLIDKLSNHENFTNTEQRIADYILKNITDIPPMNIDKLSKVTYTSHSAVVRLTKKLGFEGFKDFKVAISEAVYSQTTNMNSVDANFPFDSNDSVSTISKKVAELSVESIQRTFAQLDERLIEEAANTIAKSERIFLFAQGDSQIRARSFQNKLVKLNRFAILGEEYSDEDWTAANLTKKDCAIFISYGGRISQYERMLTHFSENKIPSVVLTGNQKSPLIRLAQTAIVTTQNEYDFLKISTFSSQITFEYLLDTIFSVIYAKEYQQNIINLKNKFNLIQRGTLSEGLAKEHDSK
MGSDKIHHHHHHMLLKLLHYLRCPQCRSQLSLSEATVGDWVEQGQLLCTQCRRTYAITKGIAYLYVENEEWKQLAAEAAGWVQMAKDAGCYDQTGIDIDFRLPYVPIPPWIDIARAFDIVLNIVRPRPGAMVVDIGAGRGWAAKQFAIRGCHAVAVEINDDDQIGLGRSLALMQHANVQYDLLIASSQRLPLADESFDIVFASAALHHSSCLATLLSEAARVLRRGGKLIAIHEPCIADHVTPEQDAPNIAQETAYNIHESRPKLDDYRHALRHAGLQELALFNHELYGTSIEDMQQWAANHWLSLLTADQIAMLRRKRTPTLWRTIRILRSRLQQLPDTTLVPPQDWMDQYYRHVGGSLTIIAQKP
MGSDKIHHHHHHMLLMPTKDWRWEFNEEYGQLALSLDTQMSFLTAYKTKMLIPDALKGMKFSVEHAKFYIRMLERLPQLLTLSDAMIVQTALNATAAHFLLKPQMPKSWFFDVSDECVYFDLGKVFQLKNNQQSMLVLVVEVGLQSVLVMNLSAACQLSDNKSLGQFDTIKVMHDRLHPLSRAKQIVAA
MGSDKIHHHHHHMLLNLFNEMRAAKVPVSVRELLDLIDALKHRVVFADMDEFYYLARTIMVKDERHFDKFDRAFGAYFKGLEKLDDHLKALIPEEWLRKEFERLLTDEEKAQIQSLGGLDKLIEEFKKRLEEQKERHAGGNKWIGTGGTSPFGSGGFNPEGIRVGDAGKRQGKAAKVWDQREYKNLDDQVELGTRNIKIALRRLRKFAREGAAEELDIDGTIDHTAKDAGLLNIQMRPERRNTVKLLLLLDIGGSMDAHVKVCEELFSACKTEFKHLEYFYFHNFIYESVWKNNLRRSSERTATFDLLHKYGPDYKVVFVGDAAMAPYEITQAGGSVEHWNEEAGYVWMQRFMEKYKKLIWINPYPKDTWNYTASTGLVRELVKEQMYPLTLSGLEEGMRFLSRG
MGSDKIHHHHHHMLLTLSICNFRSFGTEATLDLQRRGFRTQHPRKDETWQENTWRRAAIFGANAAGKSNVLRALGQLKLAITHSLTNEHWVRELRDPHSLCTDEPTSFEVEYVFDDVRYRWGLTLNHSGVVEEFLEANLSSRWRRIFERTGNSLIFGSNTGISHAAKENIEQFMRPWALVFSAWNTVKTPGPFAGALQWWQTLLPVIMSNEADQHNRHQWLVQLAQKDPTWLSVLQNVVAVADVGINKIGIEEQAPDLVKKIELTIQPDGQAEITDQFDSDEITEYLRYLMFEHSDGIHTFSLPETQESQGTKAWMDLAIPALFALSVGGVLSIDEIDGSLHPLLVRELVSYFDNSELNPLGAQLLFSTHDLTLLGKYPAESLHRGEVWLVEKERSYSELIALDEFPIRDAHNIEKRYLQGTYGAVPISNTTELLHTLEVLREKYTKMKQQ
MGSDKIHHHHHHMLNAKLLKLPTAAQQHHHEHHQIVVGVRGQAELSIDGSGACLDTWKACLVPTEARHDYCGDQQNHVLVINVDPFCAALSTPLHSDYDKLMRLFEKPRTVQMDNRIQGLVQFAAGEFDRSPDNRALHQHLAASILHCMAERIVDRPPVSSNRNSLNPEDIRRYIVGNLHRKITVQDLAGVACLSVSRFHEIFRQVTGTTPHQFLLQTRLDQAVGLLSSTSLSVSEISYRTGFSSQSALTNALRKHRGITPSRLQLNEHVA
MGSDKIHHHHHHMLNMDLSQRVVINTADLEWQNSPAAGVLRKRLAREEAERGHATSIVKYQAGAKFNSHPHPLGEEILVLDGVFSDETGDYPAGTYLRNPEGFVHAPFSVQGCTLLVKLHQFQTTDSQQVAINTNETQWLPGHGQLQVMPLHQHGTESTALVKWPAGTHFQPHRHFGGEEIYVISGVFIDELGRYPAGTWIRSPHLSQHNPYVEQDTVILVKVGHL
MGSDKIHHHHHHMLPGIVVKPLKTFADERGFFTEIMRRDWDVFEDEILQANMSVTYPGIVRAWHKHERGQVDYFVCIGGAIKICAYDDETQELAEIVSTGKNLQVVRVPGHYWHGFKAIGVEPAVLVYFVSRLYDYENPDEVRRPWNDSTIVPAKINGREDDPRCGKPWDWFYPPHK
MGSDKIHHHHHHMLQLSEFEPEVLYAFPFRNEHPGTYVYHQHDFLELSIMLEGYSDYNVEGQWRRVVAGQALLFNPGIHHQETQPPHTQSLQLHIGFRHIALPGQVPNHLPFKDALISLDDYRAEFMANAQRIVAESQRPTAFGHALLIQAMVIEQLCWLLRSLPENSVSNDYTELHQGNVSRDQQALVNAATYYLDVHYNEDLTLGTVAASLHVSAAYLSRTFKAIQGETPISYLTRLRMQRAKQLLMQEAITVRQVAHAVGYQDPYYFSKVFKRYFGAAPTLIER
